# Data: IntAct's records for PubMed 31515488
# B1: Splicing factor 45 (Homo sapiens), Q96I25 (parent)
# chain: MSLYDDLGVETSDSKTEGWSKNFKLLQSQLQVKKAALTQAKSQRTKQSTVLAPVIDLKRGGSSDDRQIVDTPPHVAAGLKDPVPSGFSAGEVLIPLADEYDPMFPNDYEKVVKRQREERQRQRELERQKEIEEREKRRKDRHEASGFARRPDPDSDEDEDYERERRKRSMGGAAIAPPTSLVEKDKELPRDFPYEEDSRPRSQSSKAAIPPPVYEEQDRPRSPTGPSNSFLANMGGTVAHKIMQKYGFREGQGLGKHEQGLSTALSVEKTSKRGGKIIVGDATEKDASKKSDSNPLTEILKCPTKVVLLRNMVGAGEVDEDLEVETKEECEKYGKVGKCVIFEIPGAPDDEAVRIFLEFERVESAIKAVVDLNGRYFGGRVVKACFYNLDKFRVLDLAEQV
# partner: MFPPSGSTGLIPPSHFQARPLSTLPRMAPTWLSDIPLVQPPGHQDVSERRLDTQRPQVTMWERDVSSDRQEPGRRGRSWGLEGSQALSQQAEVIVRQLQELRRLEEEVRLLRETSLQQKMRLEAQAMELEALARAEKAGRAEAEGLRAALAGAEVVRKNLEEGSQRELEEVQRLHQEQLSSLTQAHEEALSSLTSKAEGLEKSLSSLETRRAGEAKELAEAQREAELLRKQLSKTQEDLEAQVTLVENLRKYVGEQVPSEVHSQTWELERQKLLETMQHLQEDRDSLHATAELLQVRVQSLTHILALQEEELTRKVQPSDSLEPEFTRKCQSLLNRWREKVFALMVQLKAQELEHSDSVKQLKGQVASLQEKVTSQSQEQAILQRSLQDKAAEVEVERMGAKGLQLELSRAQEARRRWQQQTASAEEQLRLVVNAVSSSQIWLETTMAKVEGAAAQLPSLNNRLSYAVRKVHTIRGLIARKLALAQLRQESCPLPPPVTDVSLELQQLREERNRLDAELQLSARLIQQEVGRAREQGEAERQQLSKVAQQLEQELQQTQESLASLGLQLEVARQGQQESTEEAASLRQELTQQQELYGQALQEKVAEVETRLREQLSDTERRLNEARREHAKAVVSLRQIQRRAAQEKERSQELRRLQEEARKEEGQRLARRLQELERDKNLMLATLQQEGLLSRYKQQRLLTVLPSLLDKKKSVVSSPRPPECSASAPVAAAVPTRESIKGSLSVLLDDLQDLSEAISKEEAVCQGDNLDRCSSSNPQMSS
# B2: Zinc finger CCCH-type with G patch domain-containing protein (Homo sapiens), Q8N5A5 (parent)
# chain: MDEESLESALQTYRAQLQQVELALGAGLDSSEQADLRQLQGDLKELIELTEASLVSVRKSSLLAALDEERPGRQEDAEYQAFREAITEAVEAPAAARGSGSETVPKAEAGPESAAGGQEEEEGEDEEELSGTKVSAPYYSSWGTLEYHNAMVVGTEEAEDGSAGVRVLYLYPTHKSLKPCPFFLEGKCRFKENCRFSHGQVVSLDELRPFQDPDLSSLQAGSACLAKHQDGLWHAARITDVDNGYYTVKFDSLLLREAVVEGDGILPPLRTEATESDSDSDGTGDSSYARVVGSDAVDSAQSSALCPSLAVVGSDAVDSGTCSSAFAGWEVHTRGIGSRLLTKMGYEFGKGLGRHAEGRVEPIHAVVLPRGKSLDQCVETLQKQTRVGKAGTNKPPRCRGRGARPGGRPAPRNVFDFLNEKLQGQAPGALEAGAAPAGRRSKDMYHASKSAKRALSLRLFQTEEKIERTQRDIRSIQEALARNAGRHSVASAQLQEKLAGAQRQLGQLRAQEAGLQQEQRKADTHKKMTEF
# partner: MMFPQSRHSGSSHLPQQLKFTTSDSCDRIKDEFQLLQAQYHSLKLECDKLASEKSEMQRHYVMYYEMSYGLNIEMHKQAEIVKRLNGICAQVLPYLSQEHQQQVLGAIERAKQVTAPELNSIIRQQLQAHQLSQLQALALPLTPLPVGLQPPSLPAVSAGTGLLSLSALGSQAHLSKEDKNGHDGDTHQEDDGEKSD
# B3: Protein BANP (Homo sapiens), Q8N9N5 (parent)
# chain: MMSEHDLADVVQIAVEDLSPDHPVVLENHVVTDEDEPALKRQRLEINCQDPSIKTICLRLDSIEAKLQALEATCKSLEEKLDLVTNKQHSPIQVPMVAGSPLGATQTCNKVRCVVPQTTVILNNDRQNAIVAKMEDPLSNRAPDSLENVISNAVPGRRQNTIVVKVPGQEDSHHEDGESGSEASDSVSSCGQAGSQSIGSNVTLITLNSEEDYPNGTWLGDENNPEMRVRCAIIPSDMLHISTNCRTAEKMALTLLDYLFHREVQAVSNLSGQGKHGKKQLDPLTIYGIRCHLFYKFGITESDWYRIKQSIDSKCRTAWRRKQRGQSLAVKSFSRRTPNSSSYCPSEPMMSTPPPASELPQPQPQPQALHYALANAQQVQIHQIGEDGQVQVGHLHIAQVPQGEQVQITQDSEGNLQIHHVGQDGQLLEATRIPCLLAPSVFKASSGQVLQGAQLIAVASSDPAAAGVDGSPLQGSDIQVQYVQLAPVSDHTAGAQTAEALQPTLQPEMQLEHGAIQIQ
# partner: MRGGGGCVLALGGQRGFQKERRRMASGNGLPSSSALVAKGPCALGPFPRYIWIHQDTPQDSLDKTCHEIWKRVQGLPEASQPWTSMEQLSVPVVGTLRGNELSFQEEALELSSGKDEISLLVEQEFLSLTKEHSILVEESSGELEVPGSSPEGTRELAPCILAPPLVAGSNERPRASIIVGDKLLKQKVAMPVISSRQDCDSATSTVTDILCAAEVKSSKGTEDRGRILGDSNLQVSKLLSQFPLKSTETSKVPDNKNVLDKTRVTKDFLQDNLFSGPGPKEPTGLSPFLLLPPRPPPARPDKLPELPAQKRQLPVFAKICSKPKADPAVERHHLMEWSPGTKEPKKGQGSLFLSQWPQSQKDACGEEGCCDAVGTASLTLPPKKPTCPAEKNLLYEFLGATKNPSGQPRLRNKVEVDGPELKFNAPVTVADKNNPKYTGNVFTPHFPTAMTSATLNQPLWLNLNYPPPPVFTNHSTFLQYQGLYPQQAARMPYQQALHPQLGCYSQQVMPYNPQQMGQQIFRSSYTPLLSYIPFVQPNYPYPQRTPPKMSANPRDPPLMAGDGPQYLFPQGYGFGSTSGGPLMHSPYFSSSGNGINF
# B4: Keratin, type II cuticular Hb6 (Homo sapiens), O43790 (parent)
# chain: MTCGSYCGGRAFSCISACGPRPGRCCITAAPYRGISCYRGLTGGFGSHSVCGGFRAGSCGRSFGYRSGGVCGPSPPCITTVSVNESLLTPLNLEIDPNAQCVKQEEKEQIKSLNSRFAAFIDKVRFLEQQNKLLETKLQFYQNRECCQSNLEPLFEGYIETLRREAECVEADSGRLASELNHVQEVLEGYKKKYEEEVSLRATAENEFVALKKDVDCAYLRKSDLEANVEALIQEIDFLRRLYEEEIRVLQSHISDTSVVVKLDNSRDLNMDCIIAEIKAQYDDIVTRSRAEAESWYRSKCEEMKATVIRHGETLRRTKEEINELNRMIQRLTAEVENAKCQNSKLEAAVAQSEQQGEAALSDARCKLAELEGALQKAKQDMACLIREYQEVMNSKLGLDIEIATYRRLLEGEEQRLCEGVGSVNVCVSSSRGGVVCGDLCASTTAPVVSTRVSSVPSNSNVVVGTTNACAPSARVGVCGGSCKRC
# B5: Protein BANP (Homo sapiens), Q8N9N5 (parent)
# chain: B3 chain
# partner: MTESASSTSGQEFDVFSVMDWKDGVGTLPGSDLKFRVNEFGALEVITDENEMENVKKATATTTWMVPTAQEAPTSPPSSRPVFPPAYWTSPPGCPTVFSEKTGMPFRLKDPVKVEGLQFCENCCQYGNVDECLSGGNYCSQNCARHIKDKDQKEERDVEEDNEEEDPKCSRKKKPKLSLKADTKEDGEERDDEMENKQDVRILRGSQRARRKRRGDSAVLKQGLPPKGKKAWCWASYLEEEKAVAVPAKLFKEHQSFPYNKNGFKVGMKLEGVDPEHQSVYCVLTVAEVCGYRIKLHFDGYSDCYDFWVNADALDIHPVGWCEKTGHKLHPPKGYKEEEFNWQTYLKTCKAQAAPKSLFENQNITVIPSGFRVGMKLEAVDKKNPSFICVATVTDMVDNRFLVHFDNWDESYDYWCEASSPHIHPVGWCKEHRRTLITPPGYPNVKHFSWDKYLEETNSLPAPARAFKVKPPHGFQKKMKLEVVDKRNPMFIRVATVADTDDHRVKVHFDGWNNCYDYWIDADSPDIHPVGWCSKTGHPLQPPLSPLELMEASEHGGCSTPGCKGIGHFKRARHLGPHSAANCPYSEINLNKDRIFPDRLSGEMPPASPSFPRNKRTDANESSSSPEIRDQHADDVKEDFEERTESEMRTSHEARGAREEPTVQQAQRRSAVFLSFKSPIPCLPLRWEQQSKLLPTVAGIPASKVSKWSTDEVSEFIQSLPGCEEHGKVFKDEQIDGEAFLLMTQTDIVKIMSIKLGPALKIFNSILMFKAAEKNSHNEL
# B6: Microtubule-associated protein RP/EB family member 1 (Homo sapiens), Q15691 (parent)
# chain: MAVNVYSTSVTSDNLSRHDMLAWINESLQLNLTKIEQLCSGAAYCQFMDMLFPGSIALKKVKFQAKLEHEYIQNFKILQAGFKRMGVDKIIPVDKLVKGKFQDNFEFVQWFKKFFDANYDGKDYDPVAARQGQETAVAPSLVAPALNKPKKPLTSSSAAPQRPISTQRTAAAPKAGPGVVRKNPGVGNGDDEAAELMQQVNVLKLTVEDLEKERDFYFGKLRNIELICQENEGENDPVLQRIVDILYATDEGFVIPDEGGPQEEQEEY
# B7: Microtubule-associated tumor suppressor candidate 2 (Homo sapiens), Q5JR59-3 (parent)
# chain: MGHCCCKPYNCLQCLDKTNESALVKEKELSIELANIRDEVAFHTAKCEKLQKEKEELERRFEDEVKRLGWQQQAELQELEERLQLQFEAEMARLQEEHGDQLLSIRCQHQEQVEDLTASHDAALLEMENNHTVAITILQDDHDHKVQELMSTHELEKKELEENFEKLRLSLQDQVDTLTFQSQSLRDRARRFEEALRKNTEEQLEIALAPYQHLEEDMKSLKQVLEMKNQQIHEQEKKILELEKLAEKNIILEEKIQVLQQQNEDLKARIDQNTVVTRQLSEENANLQEYVEKETQEKKRLSRTNEELLWKLQTGDPTSPIKLSPTSPVYRGSSSGPSSPARVSTTPR
# partner: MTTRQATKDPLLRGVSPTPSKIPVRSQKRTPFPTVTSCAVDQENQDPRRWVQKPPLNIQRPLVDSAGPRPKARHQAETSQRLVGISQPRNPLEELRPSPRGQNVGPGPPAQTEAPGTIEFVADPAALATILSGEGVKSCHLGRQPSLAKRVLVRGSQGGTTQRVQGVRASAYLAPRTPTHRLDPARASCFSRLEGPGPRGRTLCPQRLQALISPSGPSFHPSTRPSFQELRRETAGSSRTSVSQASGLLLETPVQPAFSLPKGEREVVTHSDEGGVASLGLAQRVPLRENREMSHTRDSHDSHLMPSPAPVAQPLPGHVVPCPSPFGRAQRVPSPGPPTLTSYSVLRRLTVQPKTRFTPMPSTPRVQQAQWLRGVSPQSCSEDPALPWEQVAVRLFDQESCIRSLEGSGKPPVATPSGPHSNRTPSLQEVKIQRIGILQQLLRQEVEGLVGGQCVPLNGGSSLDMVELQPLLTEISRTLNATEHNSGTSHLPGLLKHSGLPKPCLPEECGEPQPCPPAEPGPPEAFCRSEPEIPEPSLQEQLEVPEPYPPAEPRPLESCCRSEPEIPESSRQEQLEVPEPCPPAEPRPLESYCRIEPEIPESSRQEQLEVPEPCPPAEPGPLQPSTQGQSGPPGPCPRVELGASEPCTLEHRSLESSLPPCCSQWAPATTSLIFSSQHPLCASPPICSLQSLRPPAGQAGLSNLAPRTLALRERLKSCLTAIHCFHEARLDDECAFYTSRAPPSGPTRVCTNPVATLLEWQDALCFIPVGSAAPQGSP
# B8: Interleukin-1 receptor-associated kinase 4 (Homo sapiens), Q9NWZ3 (parent)
# chain: MNKPITPSTYVRCLNVGLIRKLSDFIDPQEGWKKLAVAIKKPSGDDRYNQFHIRRFEALLQTGKSPTSELLFDWGTTNCTVGDLVDLLIQNEFFAPASLLLPDAVPKTANTLPSKEAITVQQKQMPFCDKDRTLMTPVQNLEQSYMPPDSSSPENKSLEVSDTRFHSFSFYELKNVTNNFDERPISVGGNKMGEGGFGVVYKGYVNNTTVAVKKLAAMVDITTEELKQQFDQEIKVMAKCQHENLVELLGFSSDGDDLCLVYVYMPNGSLLDRLSCLDGTPPLSWHMRCKIAQGAANGINFLHENHHIHRDIKSANILLDEAFTAKISDFGLARASEKFAQTVMTSRIVGTTAYMAPEALRGEITPKSDIYSFGVVLLEIITGLPAVDEHREPQLLLDIKEEIEDEEKTIEDYIDKKMNDADSTSVEAMYSVASQCLHEKKNKRPDIKKVQQLLQEMTAS
# Variants of: B1
# Conditions: with cchcr_human CCHCR1, Q8TD31
row,Variant,effect of a mutation on the interaction
1,T224I,with no effect

# Variants of: B2
# Conditions: with tle5_human TLE5, Q08117
row,effect of a mutation on the interaction,Variant
1,with no effect,S61R

# Variants of: B3
# Conditions: with ca094_human C1orf94, Q6P1W5
row,effect of a mutation on the interaction,Variant
1,with no effect,P348S

# Variants of: B4
# Conditions: with KRT15, P19012
# Sequence of KRT15, P19012 (P19012 whole entry): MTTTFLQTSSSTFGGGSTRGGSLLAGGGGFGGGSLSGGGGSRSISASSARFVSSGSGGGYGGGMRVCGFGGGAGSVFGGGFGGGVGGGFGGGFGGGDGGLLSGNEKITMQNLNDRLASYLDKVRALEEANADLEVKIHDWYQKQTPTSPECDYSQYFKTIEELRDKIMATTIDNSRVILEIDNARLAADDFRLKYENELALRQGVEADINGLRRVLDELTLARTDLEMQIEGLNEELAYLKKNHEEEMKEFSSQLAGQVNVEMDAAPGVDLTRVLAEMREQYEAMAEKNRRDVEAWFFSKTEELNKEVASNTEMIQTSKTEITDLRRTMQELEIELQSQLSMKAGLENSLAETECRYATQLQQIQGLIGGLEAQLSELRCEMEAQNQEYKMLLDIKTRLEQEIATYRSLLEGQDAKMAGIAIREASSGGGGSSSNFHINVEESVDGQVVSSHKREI
row,effect of a mutation on the interaction,Variant
1,with no effect,R327C
2,with no effect,R408H

# Variants of: B5
# Conditions: with lmbl3_human L3MBTL3, Q96JM7
row,effect of a mutation on the interaction,Variant
1,with no effect,P348S

# Variants of: B6
# Conditions: with mare3_human MAPRE3, Q9UPY8
# Sequence of mare3_human MAPRE3, Q9UPY8 (Q9UPY8 whole entry): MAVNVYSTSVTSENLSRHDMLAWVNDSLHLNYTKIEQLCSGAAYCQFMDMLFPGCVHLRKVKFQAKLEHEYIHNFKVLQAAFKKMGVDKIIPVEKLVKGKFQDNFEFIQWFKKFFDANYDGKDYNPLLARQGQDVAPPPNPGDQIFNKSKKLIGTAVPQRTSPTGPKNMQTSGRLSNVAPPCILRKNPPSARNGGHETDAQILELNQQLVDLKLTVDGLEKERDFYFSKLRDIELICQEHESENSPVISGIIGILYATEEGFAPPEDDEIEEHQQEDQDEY
row,effect of a mutation on the interaction,Variant
1,with no effect,N201S
2,with no effect,I56V

# Variants of: B7
# Conditions: with troap_human TROAP
row,effect of a mutation on the interaction,Variant
1,with no effect,A89V

# Variants of: B8
# Conditions: with myd88_human MYD88, Q99836
# Sequence of myd88_human MYD88, Q99836 (Q99836 whole entry): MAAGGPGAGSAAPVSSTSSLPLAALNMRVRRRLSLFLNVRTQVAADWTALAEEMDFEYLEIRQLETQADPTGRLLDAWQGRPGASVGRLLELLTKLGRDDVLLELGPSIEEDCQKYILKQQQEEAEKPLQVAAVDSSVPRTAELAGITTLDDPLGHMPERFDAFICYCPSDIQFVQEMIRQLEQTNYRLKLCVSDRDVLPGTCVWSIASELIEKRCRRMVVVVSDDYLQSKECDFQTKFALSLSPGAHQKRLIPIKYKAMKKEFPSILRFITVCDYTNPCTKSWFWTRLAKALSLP
row,effect of a mutation on the interaction,Variant
1,disrupting interaction strength,D73E
2,with no effect,R391H
